Data: paper PMC6954417

Experiments:
[1] = biological target: RAD52 (human) (UniProt P43351)
[2] = biological target: RAD52 (human) (UniProt P43351); remark: listed apart in the source
[3] = biological target: RAD52 (human) (UniProt P43351); remark: listed apart in the source
[4] = biological target: His6-RAD52;DSS1 (Homo sapiens;Homo sapiens) (UniProt P43351+P60896); experiment: competition (FRET); conditions: 8 nM RAD52-DSS1 on 1 nM Cy3-dT30-Cy5; ssDNA EMSA: 30 mM Tris-acetate pH 7.5, 1 mM DTT, RT, 0.1% glutaraldehyde; FRET: same buffer + 0.1 mg/ml BSA, 25 C; dsDNA EMSA: 30 mM KPi pH 7.4, 1 mM DTT …; scale: nM base pairs for almost complete ssDNA release
Sequence of His6-RAD52;DSS1 (Homo sapiens;Homo sapiens) (P60896 whole entry, one chain of several): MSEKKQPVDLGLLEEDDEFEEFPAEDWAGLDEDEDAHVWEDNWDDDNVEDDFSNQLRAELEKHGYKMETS

[5] = biological target: T1, His6-RAD52 (Homo sapiens) (UniProt P43351); experiment: competition (FRET); conditions: 8 nM RAD52 on 1 nM Cy3-dT30-Cy5; ssDNA EMSA: 30 mM Tris-acetate pH 7.5, 1 mM DTT, RT, 0.1% glutaraldehyde; FRET: same buffer + 0.1 mg/ml BSA, 25 C; dsDNA EMSA: 30 mM KPi pH 7.4, 1 mM DTT …; scale: nM base pairs for nearly complete ssDNA release
T1 sequence: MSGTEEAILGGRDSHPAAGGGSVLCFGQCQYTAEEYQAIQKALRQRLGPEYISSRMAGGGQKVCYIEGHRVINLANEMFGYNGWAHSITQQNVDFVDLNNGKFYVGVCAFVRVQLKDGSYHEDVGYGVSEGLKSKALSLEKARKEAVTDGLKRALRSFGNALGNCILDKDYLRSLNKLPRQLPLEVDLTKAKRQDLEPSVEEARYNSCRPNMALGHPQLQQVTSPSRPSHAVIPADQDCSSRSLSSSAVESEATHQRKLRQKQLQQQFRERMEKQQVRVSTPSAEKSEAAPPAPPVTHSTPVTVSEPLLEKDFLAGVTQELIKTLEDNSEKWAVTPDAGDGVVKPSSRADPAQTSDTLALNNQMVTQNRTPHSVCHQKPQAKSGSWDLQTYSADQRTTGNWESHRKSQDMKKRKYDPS

| Substance | gel-based single-strand annealing of 3'-overhang substrates, increasing RAD52 or pre-formed RAD52-DSS1 (1:1): maximum yield (optimum at 120 nM complex against 480 nM RAD52 alone) [1] [%] | D-loop formation with a 90-mer ssDNA and supercoiled plasmid, RAD52 or RAD52-DSS1 (1:1) at 150-3200 nM: yield (10% for RAD52 alone at 800 nM) [2] [%] | FRET-based annealing of complementary 28-mers, 8 nM RAD52 with 40 nM DSS1, no RPA: initial rate (RAD52 alone 5.2 bp/s) [3] [bp/s] | binding signal [4] | binding signal [5] |
| --- | --- | --- | --- | --- | --- |
| DSS1 (natural protein) | 65 | 20 | 17.5 |  |  |
| PhiX174 RF I DNA, ApaLI-linearized |  |  |  | 50 | 200 |
